Legend:
Experiment in all cases: pulldown
[1] = target: khdrbs1b (Tetraodon nigroviridis) (UniProt H3D6B2); conditions: 20 nM protein, 1.5 uM RNA pool; 20 mM HEPES pH 7.8, 70 mM KCl, 10 mM NaCl, 10% glycerol, 2 mM DTT, 0.1 ug/uL BSA; 30 min, 4 C
[2] = target: T1, NAB2 (Saccharomyces cerevisiae) (UniProt P32505); conditions: 20 nM protein, 1.5 uM RNA pool; 20 mM HEPES pH 7.8, 70 mM KCl, 10 mM NaCl, 10% glycerol, 2 mM DTT, 0.1 ug/uL BSA; 30 min, 4 C (protocol of this paper; not …); cited from earlier work
T1 sequence: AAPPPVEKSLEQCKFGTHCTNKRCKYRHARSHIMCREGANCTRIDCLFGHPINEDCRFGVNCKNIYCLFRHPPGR

[3] = target: T2, Tb927.5.810 S125L (Trypanosoma brucei) (UniProt Q57W26); conditions: 20 nM protein, 1.5 uM RNA pool; 20 mM HEPES pH 7.8, 70 mM KCl, 10 mM NaCl, 10% glycerol, 2 mM DTT, 0.1 ug/uL BSA; 30 min, 4 C
T2 sequence: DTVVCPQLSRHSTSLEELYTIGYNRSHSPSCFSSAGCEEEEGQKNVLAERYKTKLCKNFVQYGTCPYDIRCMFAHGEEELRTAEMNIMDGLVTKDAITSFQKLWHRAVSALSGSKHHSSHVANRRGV

[4] = target: T3, msi (Drosophila melanogaster) (UniProt H9ZJL0); conditions: 20 nM protein, 1.5 uM RNA pool; 20 mM HEPES pH 7.8, 70 mM KCl, 10 mM NaCl, 10% glycerol, 2 mM DTT, 0.1 ug/uL BSA; 30 min, 4 C (protocol of this paper; not …); cited from earlier work
T3 sequence: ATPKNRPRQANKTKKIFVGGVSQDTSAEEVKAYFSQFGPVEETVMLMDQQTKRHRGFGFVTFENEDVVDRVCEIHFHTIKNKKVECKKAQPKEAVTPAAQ

[5] = target: CELF4 (Homo sapiens) (UniProt Q9BZC1); conditions: 20 nM protein, 1.5 uM RNA pool; 20 mM HEPES pH 7.8, 70 mM KCl, 10 mM NaCl, 10% glycerol, 2 mM DTT, 0.1 ug/uL BSA; 30 min, 4 C (protocol of this paper; not …); cited from earlier work
Sequence of CELF4 (Homo sapiens) (Q9BZC1 6-486): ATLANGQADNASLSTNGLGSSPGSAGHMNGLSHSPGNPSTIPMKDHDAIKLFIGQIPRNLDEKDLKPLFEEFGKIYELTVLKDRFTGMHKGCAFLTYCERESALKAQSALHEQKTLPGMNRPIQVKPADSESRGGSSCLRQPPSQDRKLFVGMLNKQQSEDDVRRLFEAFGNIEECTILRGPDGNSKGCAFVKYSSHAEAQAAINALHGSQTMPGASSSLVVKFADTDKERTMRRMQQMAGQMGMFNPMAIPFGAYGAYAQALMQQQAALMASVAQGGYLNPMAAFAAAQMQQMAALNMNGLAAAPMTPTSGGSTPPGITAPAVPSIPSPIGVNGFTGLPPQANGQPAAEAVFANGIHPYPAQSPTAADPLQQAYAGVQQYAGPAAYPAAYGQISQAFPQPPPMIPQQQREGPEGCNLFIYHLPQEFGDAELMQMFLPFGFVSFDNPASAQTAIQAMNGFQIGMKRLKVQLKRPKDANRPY

[6] = target: T4, MBNL1 (Homo sapiens) (UniProt Q9NR56); conditions: 20 nM protein, 1.5 uM RNA pool; 20 mM HEPES pH 7.8, 70 mM KCl, 10 mM NaCl, 10% glycerol, 2 mM DTT, 0.1 ug/uL BSA; 30 min, 4 C (protocol of this paper; not …); cited from earlier work
T4 sequence: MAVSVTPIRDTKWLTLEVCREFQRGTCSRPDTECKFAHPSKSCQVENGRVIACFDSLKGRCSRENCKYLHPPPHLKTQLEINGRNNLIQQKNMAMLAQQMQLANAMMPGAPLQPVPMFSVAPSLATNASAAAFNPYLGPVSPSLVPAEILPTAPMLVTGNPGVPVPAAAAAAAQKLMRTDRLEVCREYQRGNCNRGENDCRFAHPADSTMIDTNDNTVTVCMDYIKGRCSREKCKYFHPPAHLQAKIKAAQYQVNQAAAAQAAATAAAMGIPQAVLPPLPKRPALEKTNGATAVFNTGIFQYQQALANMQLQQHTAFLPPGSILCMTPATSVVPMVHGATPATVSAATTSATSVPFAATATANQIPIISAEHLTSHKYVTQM

[7] = target: hnrpkl (Tetraodon nigroviridis) (UniProt H3CQ29); conditions: 20 nM protein, 1.5 uM RNA pool; 20 mM HEPES pH 7.8, 70 mM KCl, 10 mM NaCl, 10% glycerol, 2 mM DTT, 0.1 ug/uL BSA; 30 min, 4 C
Sequence of hnrpkl (Tetraodon nigroviridis) (H3CQ29 entry or part of it): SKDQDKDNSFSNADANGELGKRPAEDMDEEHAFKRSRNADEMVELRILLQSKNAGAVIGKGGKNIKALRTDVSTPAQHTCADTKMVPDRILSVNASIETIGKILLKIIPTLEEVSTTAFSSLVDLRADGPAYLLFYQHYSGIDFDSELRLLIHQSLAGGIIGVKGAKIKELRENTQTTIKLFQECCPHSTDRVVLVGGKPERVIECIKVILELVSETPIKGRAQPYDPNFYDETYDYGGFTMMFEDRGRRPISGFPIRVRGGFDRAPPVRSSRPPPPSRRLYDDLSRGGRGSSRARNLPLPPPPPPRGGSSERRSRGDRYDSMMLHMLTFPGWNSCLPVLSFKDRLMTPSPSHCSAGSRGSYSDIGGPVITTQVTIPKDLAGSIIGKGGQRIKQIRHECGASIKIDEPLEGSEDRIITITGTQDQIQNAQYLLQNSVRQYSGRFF

[8] = target: T5, PUB1 (Saccharomyces cerevisiae) (UniProt P32588); conditions: 20 nM protein, 1.5 uM RNA pool; 20 mM HEPES pH 7.8, 70 mM KCl, 10 mM NaCl, 10% glycerol, 2 mM DTT, 0.1 ug/uL BSA; 30 min, 4 C
T5 sequence: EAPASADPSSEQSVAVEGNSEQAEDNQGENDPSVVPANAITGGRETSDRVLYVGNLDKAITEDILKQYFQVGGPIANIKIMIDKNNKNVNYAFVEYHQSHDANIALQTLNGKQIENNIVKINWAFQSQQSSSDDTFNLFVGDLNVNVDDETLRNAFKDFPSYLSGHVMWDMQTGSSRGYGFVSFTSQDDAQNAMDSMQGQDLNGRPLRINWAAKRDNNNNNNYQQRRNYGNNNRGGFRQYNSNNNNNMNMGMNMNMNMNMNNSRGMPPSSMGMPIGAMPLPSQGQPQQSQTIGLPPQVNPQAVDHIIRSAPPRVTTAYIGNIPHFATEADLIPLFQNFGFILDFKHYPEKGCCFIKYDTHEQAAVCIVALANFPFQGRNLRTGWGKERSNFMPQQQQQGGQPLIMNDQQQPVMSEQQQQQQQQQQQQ

[9] = target: T6, Tb927.7.2140 V21F (Trypanosoma brucei) (UniProt D6XKD1); conditions: 20 nM protein, 1.5 uM RNA pool; 20 mM HEPES pH 7.8, 70 mM KCl, 10 mM NaCl, 10% glycerol, 2 mM DTT, 0.1 ug/uL BSA; 30 min, 4 C
T6 sequence: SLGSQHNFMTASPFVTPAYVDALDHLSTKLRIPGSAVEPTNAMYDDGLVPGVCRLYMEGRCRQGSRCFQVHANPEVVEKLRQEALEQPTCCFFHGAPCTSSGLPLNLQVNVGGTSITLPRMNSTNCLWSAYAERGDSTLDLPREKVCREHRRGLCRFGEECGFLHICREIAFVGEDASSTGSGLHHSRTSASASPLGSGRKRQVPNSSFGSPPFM

[10] = target: T7, Tb927.6.4960 Q72H;T102A;A103T (Trypanosoma brucei) (UniProt Q586G8); conditions: 20 nM protein, 1.5 uM RNA pool; 20 mM HEPES pH 7.8, 70 mM KCl, 10 mM NaCl, 10% glycerol, 2 mM DTT, 0.1 ug/uL BSA; 30 min, 4 C
T7 sequence: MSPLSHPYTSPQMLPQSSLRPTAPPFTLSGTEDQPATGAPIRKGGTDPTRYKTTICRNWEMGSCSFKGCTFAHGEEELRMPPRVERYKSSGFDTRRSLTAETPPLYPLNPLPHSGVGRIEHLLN

[11] = target: ENSTNIG00000011257 (Tetraodon nigroviridis) (UniProt H3D110); conditions: 20 nM protein, 1.5 uM RNA pool; 20 mM HEPES pH 7.8, 70 mM KCl, 10 mM NaCl, 10% glycerol, 2 mM DTT, 0.1 ug/uL BSA; 30 min, 4 C
Sequence of ENSTNIG00000011257 (Tetraodon nigroviridis) (H3D110 entry or part of it): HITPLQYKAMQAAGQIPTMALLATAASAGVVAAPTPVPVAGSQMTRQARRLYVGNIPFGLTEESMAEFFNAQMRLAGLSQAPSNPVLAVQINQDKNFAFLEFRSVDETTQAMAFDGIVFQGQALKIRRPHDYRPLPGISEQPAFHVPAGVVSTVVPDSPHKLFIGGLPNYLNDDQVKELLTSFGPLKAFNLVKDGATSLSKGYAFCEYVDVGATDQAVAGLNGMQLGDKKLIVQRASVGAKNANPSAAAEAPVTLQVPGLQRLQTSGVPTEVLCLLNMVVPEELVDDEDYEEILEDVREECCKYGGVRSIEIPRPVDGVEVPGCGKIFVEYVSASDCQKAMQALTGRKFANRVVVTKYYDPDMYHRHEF

[12] = target: T8, tardbp (Danio rerio) (UniProt A0ACM8Q011); conditions: 20 nM protein, 1.5 uM RNA pool; 20 mM HEPES pH 7.8, 70 mM KCl, 10 mM NaCl, 10% glycerol, 2 mM DTT, 0.1 ug/uL BSA; 30 min, 4 C
T8 sequence: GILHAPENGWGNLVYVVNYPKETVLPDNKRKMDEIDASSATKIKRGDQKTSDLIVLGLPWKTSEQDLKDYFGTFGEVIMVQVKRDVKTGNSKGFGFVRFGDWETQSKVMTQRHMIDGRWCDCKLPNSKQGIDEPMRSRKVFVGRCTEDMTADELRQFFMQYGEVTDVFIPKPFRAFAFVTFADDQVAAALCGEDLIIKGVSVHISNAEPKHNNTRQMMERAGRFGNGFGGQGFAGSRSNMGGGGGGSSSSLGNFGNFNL

Sequence of khdrbs1b (Tetraodon nigroviridis) (H3D6B2 entry or part of it): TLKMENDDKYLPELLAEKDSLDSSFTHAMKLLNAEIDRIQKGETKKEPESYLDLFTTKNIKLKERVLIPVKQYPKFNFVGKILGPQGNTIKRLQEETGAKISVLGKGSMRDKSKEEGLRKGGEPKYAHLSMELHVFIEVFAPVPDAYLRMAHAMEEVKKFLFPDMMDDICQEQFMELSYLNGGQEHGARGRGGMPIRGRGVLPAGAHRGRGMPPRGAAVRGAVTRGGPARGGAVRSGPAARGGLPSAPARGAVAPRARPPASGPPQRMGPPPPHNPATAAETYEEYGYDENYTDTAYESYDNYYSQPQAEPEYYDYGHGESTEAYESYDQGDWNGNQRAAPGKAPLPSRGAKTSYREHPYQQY

AUAAAAG [RNAcompete motif RNCMPT01673]
binding signal (z-score (mean of top ten 7-mers)) [1]: 8.63

CCUCU [RNAcompete motif RNCMPT00042]
binding signal (z-score (mean of top ten 7-mers)) [2]: 6.1

UAUUAUU [RNAcompete motif RNCMPT00837]
binding signal (z-score (mean of top ten 7-mers)) [3]: 13

GUAGUU [RNAcompete motif RNCMPT00040]
binding signal (z-score (mean of top ten 7-mers)) [4]: 12.5

UGUGUG [RNAcompete motif RNCMPT00004]
binding signal (z-score (mean of top ten 7-mers)) [5]: 7.26

GCUUGC [RNAcompete motif RNCMPT00038]
binding signal (z-score (mean of top ten 7-mers)) [6]: 11.2

AAACCCAA [RNAcompete motif RNCMPT01679]
binding signal (z-score (mean of top ten 7-mers)) [7]: 6.12

UUUUUUU [RNAcompete motif RNCMPT01685]
binding signal (z-score (mean of top ten 7-mers)) [8]: 11.6

AAAACG [RNAcompete motif RNCMPT00834]
binding signal (z-score (mean of top ten 7-mers)) [9]: 26

UAAUAA [RNAcompete motif RNCMPT00833]
binding signal (z-score (mean of top ten 7-mers)) [10]: 13.9

UUUUUU [RNAcompete motif RNCMPT01671]
binding signal (z-score (mean of top ten 7-mers)) [11]: 12.3

UGAAUGA [RNAcompete motif RNCMPT01664]
binding signal (z-score (mean of top ten 7-mers)) [12]: 9.7

From PMC12990809
